B1: Twister Ribozyme (parent)
chain: AACACUGCCAAUGCCGGUCCCAAGCCCGGAUAAAAGUGGAGGGGGCGG

Variants of: B1
Assay: self-cleavage, relative activity (ratio to wild type); higher = more cleavage; co-transcriptional

Variant | self-cleavage
A10U C27G | 0.057
A10U C27U | 0.93
A10U C46U | 0.836
A10U G13A | 0.913
A10U G13C | 0.211
A10U G16C | 0.419
A10U G16U | 0.802
A10U G17A | 0.532
A10U G17C | 0.11
A10U G24U | 0.119
A10U G28U | 0.929
A10U G29U | 0.939
A10U G36A | 0.804
A10U G36U | 0.716
A10U G38U | 0.863
A10U G39C | 0.0863
A10U G42U | 0.447
A10U G44C | 0.937
A10U G44U | 0.971
A10U G45A | 0.999
A10U G45U | 0.871
A10U G47A | 0.946
A10U G47C | 0.596
A10U G47U | 1.01

Variant | self-cleavage
A10U G48A | 0.959
A10U U12A | 0.986
A10U U18A | 0.546
A10U U18C | 0.506
A10U U18G | 0.115
A10U U31G | 0.948
A10U U37G | 0.602
A11C | 0.906
A11C A22C | 0.929
A11C A22G | 0.168
A11C A23C | 0.0766
A11C A30C | 0.719
A11C A30G | 0.739
A11C A32G | 0.788
A11C A33U | 0.853
A11C A34G | 0.713
A11C A40C | 0.14
A11C A40G | 0.12
A11C A40U | 0.153
A11C C14A | 0.69
A11C C14U | 0.909
A11C C15A | 0.24
A11C C19U | 0.627
A11C C20G | 0.131

Variant | self-cleavage
A11C C20U | 0.91
A11C C25A | 0.0918
A11C C25G | 0.115
A11C C25U | 0.733
A11C C26U | 0.137
A11C C46A | 0.908
A11C C46G | 0.917
A11C C46U | 0.736
A11C G13A | 0.188
A11C G13C | 0.164
A11C G13U | 0.0589
A11C G16A | 0.234
A11C G16U | 0.0992
A11C G17C | 0.0996
A11C G24A | 0.0913
A11C G24C | 0.0648
A11C G24U | 0.0789
A11C G28C | 0.431
A11C G29A | 0.531
A11C G29U | 0.681
A11C G36A | 0.87
A11C G36U | 0.8
A11C G39A | 0.601
A11C G39C | 0.208

Variant | self-cleavage
A11C G39U | 0.214
A11C G41C | 0.255
A11C G41U | 0.42
A11C G42A | 0.248
A11C G42U | 0.136
A11C G43A | 0.167
A11C G44U | 0.791
A11C G45U | 0.748
A11C G48A | 0.998
A11C G48C | 1.05
A11C G48U | 1.06
A11C U31A | 0.502
A11C U31G | 0.917
A11C U37A | 0.886
A11C U37C | 0.808
A11C U37G | 0.742
A11G | 0.932
A11G A22G | 0.23
A11G A23U | 0.614
A11G A30G | 0.674
A11G A30U | 0.976
A11G A32U | 0.841
A11G A33U | 0.955
A11G A34G | 0.819

Variant | self-cleavage
A11G A35C | 0.903
A11G A40C | 0.214
A11G A40U | 0.126
A11G C15A | 0.567
A11G C19G | 0.538
A11G C19U | 0.792
A11G C25A | 0.13
A11G C25U | 0.737
A11G C26A | 0.187
A11G C27A | 0.449
A11G C27U | 0.405
A11G C46A | 0.808
A11G C46G | 0.938
A11G G13A | 0.745
A11G G13C | 0.345
A11G G16C | 0.406
A11G G16U | 0.875
A11G G17A | 0.372
A11G G17C | 0.0792
A11G G17U | 0.188
A11G G24A | 0.0843
A11G G24C | 0.0551
A11G G29C | 0.679
A11G G36A | 0.458

Variant | self-cleavage
A11G G36C | 0.0984
A11G G39U | 0.224
A11G G41A | 0.505
A11G G41U | 0.65
A11G G42A | 0.441
A11G G42C | 0.455
A11G G42U | 0.411
A11G G43U | 0.374
A11G G44A | 0.778
A11G G44U | 0.876
A11G G45A | 0.811
A11G G45U | 0.567
A11G G47C | 0.528
A11G G47U | 0.861
A11G G48U | 0.942
A11G U12A | 0.942
A11G U12G | 0.743
A11G U18G | 0.0264
A11G U37A | 0.587
A11U | 1.04
A11U A22U | 0.908
A11U A23G | 0.755
A11U A30G | 1.11
A11U A30U | 1.01

Variant | self-cleavage
A11U A32C | 0.926
A11U A33U | 1.03
A11U A34C | 0.365
A11U A35G | 0.919
A11U A40G | 0.0881
A11U C14A | 0.915
A11U C14U | 1.13
A11U C15U | 1
A11U C19A | 0.386
A11U C19G | 0.616
A11U C19U | 0.933
A11U C20G | 0.17
A11U C20U | 1.08
A11U C21U | 0.0941
A11U C25G | 0.501
A11U C26A | 0.674
A11U C26G | 0.31
A11U C46A | 0.93
A11U G13A | 0.95
A11U G13U | 0.694
A11U G16U | 0.544
A11U G24C | 0.0932
A11U G28C | 0.801

— the RNAGym collection of RNA variant scans (doi:10.7554/elife.80360)
